Assay results as given in patent publication US20200002405A1 (ADMINISTRATORS OF THE TULANE EDUCATIONAL FUND, published 2020).
Read-outs that look alike come from different tables or passages of the source.

T1: LASV Josiah (lineage IV) glycoprotein, full-length GP (Lassa virus, Josiah strain, UniProt P08669 2-491)
T1 sequence: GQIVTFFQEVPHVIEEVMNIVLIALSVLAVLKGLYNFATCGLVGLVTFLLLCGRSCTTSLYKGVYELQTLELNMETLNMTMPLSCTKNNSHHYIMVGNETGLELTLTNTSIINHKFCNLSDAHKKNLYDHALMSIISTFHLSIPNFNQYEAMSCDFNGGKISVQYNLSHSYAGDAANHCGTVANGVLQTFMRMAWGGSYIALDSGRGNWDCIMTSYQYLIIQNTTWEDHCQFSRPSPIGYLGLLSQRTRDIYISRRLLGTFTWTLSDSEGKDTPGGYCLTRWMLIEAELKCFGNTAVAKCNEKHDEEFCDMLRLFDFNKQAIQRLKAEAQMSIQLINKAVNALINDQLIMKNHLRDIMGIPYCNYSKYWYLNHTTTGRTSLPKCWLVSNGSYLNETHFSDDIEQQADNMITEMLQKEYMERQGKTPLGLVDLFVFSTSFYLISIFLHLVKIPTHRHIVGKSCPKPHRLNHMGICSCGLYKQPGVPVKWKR

T2: LCMV WE strain GP (LCMV, WE strain, UniProt P07399 2-498)
T2 construct: whole, on cells
T2 sequence: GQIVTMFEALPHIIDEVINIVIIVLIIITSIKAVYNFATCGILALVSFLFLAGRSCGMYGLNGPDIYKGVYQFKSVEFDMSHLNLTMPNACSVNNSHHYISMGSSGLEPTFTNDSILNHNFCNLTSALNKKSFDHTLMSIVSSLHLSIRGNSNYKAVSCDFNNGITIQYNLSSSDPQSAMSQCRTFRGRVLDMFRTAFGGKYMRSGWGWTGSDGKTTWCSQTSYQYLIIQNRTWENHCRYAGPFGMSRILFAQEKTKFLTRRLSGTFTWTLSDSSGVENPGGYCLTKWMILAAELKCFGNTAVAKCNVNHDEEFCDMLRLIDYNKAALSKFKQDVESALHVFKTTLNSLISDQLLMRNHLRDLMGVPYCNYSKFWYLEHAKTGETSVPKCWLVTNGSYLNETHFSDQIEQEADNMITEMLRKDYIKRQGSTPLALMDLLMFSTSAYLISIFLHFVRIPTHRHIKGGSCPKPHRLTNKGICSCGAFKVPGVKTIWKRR


Key:
[1] = target: T1, LASV Josiah (lineage IV) glycoprotein, …; assay: cell-based or functional assay
[2] = target: LASV A19 (lineage II) glycoprotein (Lassa virus, strain A19); assay: cell-based or functional assay
[3] = target: LASV Pinneo (lineage I) glycoprotein (Lassa virus, strain Pinneo); assay: cell-based or functional assay
[4] = target: LASV 237 (lineage III) glycoprotein (Lassa virus, strain 237); assay: cell-based or functional assay
[5] = target: T1, LASV Josiah (lineage IV) glycoprotein, …; assay: cell-based or functional assay; remark: listed apart in the source
LCMV WE strain GP = target: T2, LCMV WE strain GP; assay: immunofluorescence, 293T cells transfected with GP plasmid

| Binder | IC50 (neutralization) [1] | IC80 (neutralization) [1] | IC50 (neutralization) [2] | IC80 (neutralization) [2] | IC50 (neutralization) [3] | IC80 (neutralization) [3] | IC50 (neutralization) [4] | IC80 (neutralization) [4] | IC50 (neutralization) [5] | IC80 (neutralization) [5] | binding result (LCMV WE strain GP) |
| --- | --- | --- | --- | --- | --- | --- | --- | --- | --- | --- | --- |
| 9.8A (antibody, V domains shown) VH: EVQLVQSGGRLVQPGGSLRLSCVASGFTFSSHAMSWVRQAPGKGLEWVSGFSGSSGTTKYADSVKGRFTISRDNSKKTLYLQMNSLRAEDTAVYYCAKGFSPFRGVQFPYFDYWGQGTLVTVSS VL: DIVMTQSPSTLSASVGDRVTITCRASQSIDRWLAWYQQKPGKAPKLLIYQASSLERGVPSRFSGSGSGTEFTLTISSLQPDDFATYYCQQYNGYPLTFGGGTKVEIKR | 1.31 µg/mL | 2.42 µg/mL | 0.15 µg/mL | 0.527 µg/mL | 1 µg/mL | 2.59 µg/mL | 0.193 µg/mL | 0.494 µg/mL | 0.139 µg/mL | 0.253 µg/mL | – |
| 25.10C (antibody, V domains shown) VH: QVQLQESGGGLVKPGGSLRLSCTASGFNFNKYNMNWVRQAPGKGLEWVSSISALSTYIYYADSLKGRFTVSRDNAKNSLFLQMNSLRDDDTAVYYCAREIRRASTWSADLWGRGTLVTVSS VL: DIQMTQSPSSLSASVGDRVIITCRASQSISSSLNWYQQKPGKAPKLLIYAAVNLETGVPSRFSGSGFGTDFTLAISNVQPEDFATYYCQQSDTRTFGRGTKLDVKR | – | – | – | – | – | – | – | – | – | – | no binding |
| 36.9F (antibody, V domains shown) VH: EVQLVQSGGGLVKAGGSLKLSCGASGFTFSSYSMSWVRQAPGKGLEWVSYISSGGSSIHYADSVKGRFTISRDNAKNSLYLQMKNLRVDDTGRYYCVRDPRSGISGRYGMDVWGQGTTVTVSS VL: DIVMTQSPDSLAVSLGERATINCKSSQTVLFTSYYVAWYQQKPGQPPKLLFSGASSRESGVPDRFSAGGSGTDFYLTINSLQAEDVADYYCQQYHTPPFTFGGGTKLEIRR | 18 µg/mL | > 20 µg/mL | 13 µg/mL | > 20 µg/mL | 6.98 µg/mL | > 20 µg/mL | 4.69 µg/mL | 19.4 µg/mL | 0.57 µg/mL | 2.23 µg/mL | – |
| NE13 (antibody, V domains shown) VH: EVQLVESGGGLVKPGGSLRLSCVASGFTFSSYSMNWVRQAPGKGLEWVSSISSGSSYIEYADSVKGRLTISRDNAKKSLYLQLNSLRAEDTAVYYCARHTARIDSYHGMDVWGQGTTVTVSS VL: ETTLTQSPGTLSLSPGERATLSCRASQSVSSTYLAWYQQKPGQSPRLLIYGASSRATGIPDRFSGSGSGTQFTLTINRLEPEDFAVYYCQQFGSPWTFGQGTKVEIKR | – | – | – | – | – | – | – | – | – | – | no binding |
| 19.7E (antibody, V domains shown) VH: EVQLVESGGGLVRPGGSLRLSCAASGFSFSSYSMHWVRHVPGKGLVWVSYINSDGSTKIYADSVKGRFSISRDNAKNKLYLQMDSLRVEDTAVYSCVRLVHYDWSPFVWGQGTLVTVSS VL: EIVLTQSPSTLSASVGDRVTITCRASQSINNWLAWYQEKPGKAPKLLINKASSLESGVPSRFSGSGSGTEFTLTITSLQPDDFATYYCQQYNSNSWTFGQGTKVDMKR | – | – | – | – | – | – | – | – | – | – | no binding |
| 8.11G (antibody, V domains shown) VH: QVQLQESGPGLVKPSETLSLTCSISGVSTRNYYWSWIRQSPGKGLEWIGYIFNIGTTNYNPSLKSRLTISVDTSKNQFSLKITSVTAADTAVYYCASGFEYGDYTFDYWGQGTPVTVSS VL: EIVLTQSPATLSVSPGGRASLSCRASQSIGDKLSWYQQKPGQAPRLVIYGAYTRATDISPRFSGSRSGTDFNLTISRMQSGDFAVYFCQQYENWPRTFGQGTKLEIKR | 0.361 µg/mL | 1.74 µg/mL | 1.48 µg/mL | 4.59 µg/mL | 3.25 µg/mL | 10.5 µg/mL | 1.17 µg/mL | 3.64 µg/mL | > 10 µg/mL | > 10 µg/mL | no binding |
| 25.6A (antibody, V domains shown) VH: QVQLQESGGGLVKAGGSLRLSCAASGFMFERYSLHWVRQTPGKGLEWVSSISSLSGSHINYADSVKGRFTISRDNAKNSLSLQMNSLRVEDTAIYYCARDRRSGSSPVPLDVWGQGTTVTVSS VL: DLPVLTQPASVSGSPGQSITISCTGTSSDVGAYNYVSWYQQHPGKAPKLIIYEVKIRPSGVSNRFSGSKSGNTASLTISGLQAEDEADYFCSSYSTNSPWVFGGGTKVTVLR | 0.743 µg/mL | 2 µg/mL | 0.483 µg/mL | 3.51 µg/mL | 1.83 µg/mL | 3.11 µg/mL | 0.169 µg/mL | 0.603 µg/mL | 0.188 µg/mL | 0.3 µg/mL | – |
| 18.5C (antibody) VH: DEVQLVESGGGLVRPGGSLRLSCAAAGFTFKSYSMNWVRQAPGRGLEWVSSITSGGSKTYYADVVKGRFTVSRDNAKQSLYLQMNSLRAEDTAIYFCARSLHSTSQPSYMDVWGRKITVIVSSASTKGPSVFPLAPSSKSTSGGTAALGCLVKDYFPEPVTVSWNSGALTSGVHTFPAVLQSSGLYSLSSVVTVPSSSLGTQTYICNVNHKPSNTKVDKRVEPKSCDKTHTCPPCPAPELLGGPSVFLFPPKPKDTLMISRTPEVTC VL: DDIQMTQSPGTLSLSPGERATLSCRASQSVISYYVAWYQHKGGQAPRLLIYGASSRATGVPDRFSGSGSGTDFTLTISSLEPEDFALYYCQYYGSSPLWAFGQGTKVEIKRTVAAPSVFIFPPSDEQLKSGTASVVCLLNNFYPREAKVQWKVDNALQSGNSQESVTEQDSKDSTYSLSSTLTLSKADYEKHKVYACEVTHQGLSSPVTKSFNRGEC | 1.94 µg/mL | 3.98 µg/mL | 1.2 µg/mL | 4.63 µg/mL | 6.11 µg/mL | 12.2 µg/mL | 0.621 µg/mL | 3.23 µg/mL | > 10 µg/mL | > 10 µg/mL | – |
| 10.4B (antibody) VH: DQVQLVQSGGGVVQPGRSLRVSCVTSGFNFRAYGMHWVRQIPGKGLEWVADIWSAETNRHYADSVKGRFTISRDNSKSTLYLQMNSLRAEDTGVYFCAKARPGYDYVVDLWGQGTLVIVSSASTKGPSVFPLAPCSRSTSGGTAALGCLVKDYFPEPVTVSWNSGALTSGVHTFPAVLQSSGL VL: DEIVLTQSPSSLSASVGDRVTITCRASRDINTYLGWFQQRPGKAPKSLIYGASNLQNGVPSRFSGSGSGTYFTLTINGLQTEDFATYYCQQYSIYPLSLGGGTKADMKRTVAAPSVFIFPPSDEQLKSGTASVVCLLNNFYPREAKVQWKVDNALQSGNSQESVTEQDSKDSTYSLSSTLTLSKADYEKHKVYACEVTHQGLSSP | > 20 µg/mL | > 20 µg/mL | > 20 µg/mL | > 20 µg/mL | > 20 µg/mL | > 20 µg/mL | > 20 µg/mL | > 20 µg/mL | > 10 µg/mL | > 10 µg/mL | no binding |
